Tests used:
[1] = biological target: T1, PrP^c, cellular isoform of the mouse prion protein (mouse, UniProt P04925 23-230); experiment: immunoprecipitation from normal mouse brain homogenate, positive control
[2] = biological target: T1, PrP^c, cellular isoform of the mouse …; experiment: immunoprecipitation from normal mouse brain homogenate, western blot

T1 sequence (P04925 23-230 limits assumed): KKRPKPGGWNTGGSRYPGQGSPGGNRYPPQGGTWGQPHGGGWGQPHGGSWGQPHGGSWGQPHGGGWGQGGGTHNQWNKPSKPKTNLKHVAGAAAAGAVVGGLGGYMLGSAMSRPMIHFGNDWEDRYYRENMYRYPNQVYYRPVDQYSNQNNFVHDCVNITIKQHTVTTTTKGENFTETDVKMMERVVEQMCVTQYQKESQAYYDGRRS

Row | Binder | binding result [1] | binding result [2]
1 | Fab D13 (Fab, V domains shown) VH: VQLLEQSGAELVKPGASVKLSCTTSGLNIEDYYIHWVKQRPEQGLEWIGRIDPENGETLYAPEFQGKATITADTSSNTVYLQLRSLTSEDTAIYYCGRFDGNGWYLDVWGAGTTVTVSS VL: not shown | binds | 
2 | Fab b12 (Fab, V domains shown) VH: QVQLVQSGAEVKKPGASVKVSCQASGYRFSNFVIHWVRQAPGQRFEWMGWINPYNGNKEFSAKFQDRVTFTADTSANTAYMELRSLRSADTAVYYCARVGPYSWDDSPQDNYYMDVWGKGTTVIVSS VL: EIVLTQSPGTLSLSPGERATFSCRSSHSIRSRRVAWYQHKPGQAPRLVIHGVSNRASGISDRFSGSGSGTDFTLTITRVEPEDFALYYCQVYGASSYTFGQGTKLERKR |  | no binding
3 | IgG1 b12 (antibody, V domains shown, Human IgG1) VH: QVQLVQSGAEVKKPGASVKVSCQASGYRFSNFVIHWVRQAPGQRFEWMGWINPYNGNKEFSAKFQDRVTFTADTSANTAYMELRSLRSADTAVYYCARVGPYSWDDSPQDNYYMDVWGKGTTVIVSS VL: EIVLTQSPGTLSLSPGERATFSCRSSHSIRSRRVAWYQHKPGQAPRLVIHGVSNRASGISDRFSGSGSGTDFTLTITRVEPEDFALYYCQVYGASSYTFGQGTKLERKR |  | no binding
